T1: Tumor Suppressor (TSG101) 1-274 (human, UniProt Q99816 1-274)
T1 construct: range 1-274; bait (Gal4 DBD fusion)
T1 sequence (looked up): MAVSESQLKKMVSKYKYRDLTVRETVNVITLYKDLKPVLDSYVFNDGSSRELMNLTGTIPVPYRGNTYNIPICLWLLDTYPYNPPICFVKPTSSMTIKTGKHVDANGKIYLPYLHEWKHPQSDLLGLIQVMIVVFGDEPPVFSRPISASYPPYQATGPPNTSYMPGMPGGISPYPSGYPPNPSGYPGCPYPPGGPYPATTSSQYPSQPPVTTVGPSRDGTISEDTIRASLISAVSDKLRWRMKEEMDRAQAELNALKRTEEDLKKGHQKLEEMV

T2: Tumor Suppressor (TSG101) 50-391 (human, UniProt Q99816 50-390)
T2 construct: range 50-391; bait (Gal4 DBD fusion)
T2 sequence (looked up): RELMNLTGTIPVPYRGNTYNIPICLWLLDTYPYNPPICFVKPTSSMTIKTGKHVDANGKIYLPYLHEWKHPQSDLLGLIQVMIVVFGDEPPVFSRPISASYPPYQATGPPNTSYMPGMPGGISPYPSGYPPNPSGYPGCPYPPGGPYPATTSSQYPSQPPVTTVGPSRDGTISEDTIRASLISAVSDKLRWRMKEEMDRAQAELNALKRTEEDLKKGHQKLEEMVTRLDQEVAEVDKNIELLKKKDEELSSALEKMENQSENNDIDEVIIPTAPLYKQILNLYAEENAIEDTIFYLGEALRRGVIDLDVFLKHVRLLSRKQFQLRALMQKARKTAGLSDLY

T3: v-akt murine thymoma viral oncogene homolog 2 (AKT2) 1-152 (human, UniProt P31751 1-152)
T3 construct: bait (Gal4 DBD fusion)
T3 sequence (looked up): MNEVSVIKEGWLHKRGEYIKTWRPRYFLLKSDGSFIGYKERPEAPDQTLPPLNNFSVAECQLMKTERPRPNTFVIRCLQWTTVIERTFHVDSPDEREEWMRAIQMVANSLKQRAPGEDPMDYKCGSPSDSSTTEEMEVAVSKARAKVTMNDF

T4: Golgi autoantigen (Golgin-84) 198-501 (human, UniProt Q8TBA6 198-501)
T4 construct: prey (Gal4 AD-HA fusion)
T4 sequence (looked up): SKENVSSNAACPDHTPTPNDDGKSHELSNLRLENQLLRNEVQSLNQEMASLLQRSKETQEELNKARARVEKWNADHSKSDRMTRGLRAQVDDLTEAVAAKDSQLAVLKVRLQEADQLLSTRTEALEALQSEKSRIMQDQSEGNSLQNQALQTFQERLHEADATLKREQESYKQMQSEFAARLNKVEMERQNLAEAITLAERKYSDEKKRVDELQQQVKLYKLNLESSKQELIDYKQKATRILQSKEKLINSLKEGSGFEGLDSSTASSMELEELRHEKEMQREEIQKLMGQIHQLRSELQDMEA

T5: Hypothetical protein FLJ10540 2-132 (human, UniProt Q53EZ4 2-132)
T5 construct: prey (Gal4 AD-HA fusion)
T5 sequence (looked up): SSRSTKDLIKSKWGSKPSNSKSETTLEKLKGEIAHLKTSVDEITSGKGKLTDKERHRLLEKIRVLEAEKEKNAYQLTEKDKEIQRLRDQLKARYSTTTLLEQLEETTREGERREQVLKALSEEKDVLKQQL

T6: Hypothetical protein FLJ10540 1-140 (human, UniProt Q53EZ4 1-140)
T6 construct: range 1-140; prey (Gal4 AD-HA fusion)
T6 sequence (looked up): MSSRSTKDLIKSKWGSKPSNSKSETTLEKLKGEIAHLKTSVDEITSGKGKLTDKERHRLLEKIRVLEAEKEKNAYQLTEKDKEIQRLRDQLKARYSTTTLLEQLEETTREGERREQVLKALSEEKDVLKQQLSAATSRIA

B1: Actinin (ACTN1) 719-892 (other, human, UniProt P12814 719-892, looked up)
chain: QLLTTIARTINEVENQILTRDAKGISQEQMNEFRASFNHFDRDHSGTLGPEEFKACLISLGYDIGNDPQGEAEFARIMSIVDPNRLGVVTFQAFIDFMSRETADTDTADQVMASFKILAGDKNYITMDELRRELPPDQAEYCIARMAPYTGPDSVPGALDYMSFSTALYGESDL
notes: prey (Gal4 AD-HA fusion)
B2: Survivin (BIRC5) 3-99 (other, human, UniProt O15392 3-99, looked up)
chain: APTLPPAWQPFLKDHRISTFKNWPFLEGCACTPERMAEAGFIHCPTENEPDLAQCFFCFKELEGWEPDDDPIEEHKKHSSGCAFLSVKKQFEELTLG
notes: range 3-99; bait (Gal4 DBD fusion); also called API4
B3: Hypothetical protein FLJ10540 1-110 (other, human, UniProt Q53EZ4 1-110, looked up)
chain: MSSRSTKDLIKSKWGSKPSNSKSETTLEKLKGEIAHLKTSVDEITSGKGKLTDKERHRLLEKIRVLEAEKEKNAYQLTEKDKEIQRLRDQLKARYSTTTLLEQLEETTRE
notes: range 1-110; prey (Gal4 AD-HA fusion)
B4: tetratricopeptide repeat domain 3 (TPRD) 1058-1189 (other, human, UniProt P53804 1058-1189, looked up)
chain: NRNSDSAGPFAVPDHLRQDVEEFEALYDQHSNEYVVRNKKLWDMNPKQKCSTLYDYFSQFLEEHGPLDMSNKMFSAEYEFFPEETRQILEKAGGLKPFLLGCPRFVVIDNCIALKKVASRLKKKRKKKNIKT
notes: prey (Gal4 AD-HA fusion)
B5: farnesyltransferase, CAAX box, alpha (FNTA) 189-328 (enzyme)
chain: not shown
notes: prey (Gal4 AD-HA fusion)
B6: Hypothetical protein FLJ10540 1-231 (other, human, UniProt Q53EZ4 1-231, looked up)
chain: MSSRSTKDLIKSKWGSKPSNSKSETTLEKLKGEIAHLKTSVDEITSGKGKLTDKERHRLLEKIRVLEAEKEKNAYQLTEKDKEIQRLRDQLKARYSTTTLLEQLEETTREGERREQVLKALSEEKDVLKQQLSAATSRIAELESKTNTLRLSQTVAPNCFNSSINNIHEMEIQLKDALEKNQQWLVYDQQREVYVKGLLAKIFELEKKTETAAHSLPQQTKKPESEGYLQE
notes: prey (Gal4 AD-HA fusion)
B7: Hypothetical protein FLJ10540 1-115 (other, human, UniProt Q53EZ4 1-115, looked up)
chain: MSSRSTKDLIKSKWGSKPSNSKSETTLEKLKGEIAHLKTSVDEITSGKGKLTDKERHRLLEKIRVLEAEKEKNAYQLTEKDKEIQRLRDQLKARYSTTTLLEQLEETTREGERRE
notes: prey (Gal4 AD-HA fusion)
B8: VPS28 protein 10-221 (other, human, UniProt Q9UK41 10-221, looked up)
chain: GIGAPGNKPELYEEVKLYKNAREREKYDNMAELFAVVKTMQALEKAYIKDCVSPSEYTAACSRLLVQYKAAFRQVQGSEISSIDEFCRKFRLDCPLAMERIKEDRPITIKDDKGNLNRCIADVVSLFITVMDKLRLEIRAMDEIQPDLRELMETMHRMSHLPPDFEGRQTVSQWLQTLSGMSASDELDDSQVRQMLFDLESAYNAFNRFLHA
notes: prey (Gal4 AD-HA fusion); also called vacuolar protein sorting 28
B9: Hypothetical protein FLJ10540 1-74 (other, human, UniProt Q53EZ4 1-74, looked up)
chain: MSSRSTKDLIKSKWGSKPSNSKSETTLEKLKGEIAHLKTSVDEITSGKGKLTDKERHRLLEKIRVLEAEKEKNA
notes: range 1-74; prey (Gal4 AD-HA fusion)
B10: Hypothetical protein FLJ10540 1-120 (other, human, UniProt Q53EZ4 1-120, looked up)
chain: MSSRSTKDLIKSKWGSKPSNSKSETTLEKLKGEIAHLKTSVDEITSGKGKLTDKERHRLLEKIRVLEAEKEKNAYQLTEKDKEIQRLRDQLKARYSTTTLLEQLEETTREGERREQVLKA
notes: range 1-120; prey (Gal4 AD-HA fusion)
B11: VPS28 protein 27-221 (other, human, UniProt Q9UK41 27-221, looked up)
chain: YKNAREREKYDNMAELFAVVKTMQALEKAYIKDCVSPSEYTAACSRLLVQYKAAFRQVQGSEISSIDEFCRKFRLDCPLAMERIKEDRPITIKDDKGNLNRCIADVVSLFITVMDKLRLEIRAMDEIQPDLRELMETMHRMSHLPPDFEGRQTVSQWLQTLSGMSASDELDDSQVRQMLFDLESAYNAFNRFLHA
notes: as for B8
B12: Hypothetical protein FLJ10540 115-231 (other, human, UniProt Q53EZ4 115-231, looked up)
chain: EQVLKALSEEKDVLKQQLSAATSRIAELESKTNTLRLSQTVAPNCFNSSINNIHEMEIQLKDALEKNQQWLVYDQQREVYVKGLLAKIFELEKKTETAAHSLPQQTKKPESEGYLQE
notes: prey (Gal4 AD-HA fusion)
B13: Tumor Suppressor (TSG101) 147-391 (other, human, UniProt Q99816 147-390, looked up)
chain: SASYPPYQATGPPNTSYMPGMPGGISPYPSGYPPNPSGYPGCPYPPGGPYPATTSSQYPSQPPVTTVGPSRDGTISEDTIRASLISAVSDKLRWRMKEEMDRAQAELNALKRTEEDLKKGHQKLEEMVTRLDQEVAEVDKNIELLKKKDEELSSALEKMENQSENNDIDEVIIPTAPLYKQILNLYAEENAIEDTIFYLGEALRRGVIDLDVFLKHVRLLSRKQFQLRALMQKARKTAGLSDLY
notes: bait (Gal4 DBD fusion)
B14: Tumor Suppressor (TSG101) 140-270 (other, human, UniProt Q99816 140-270, looked up)
chain: PVFSRPISASYPPYQATGPPNTSYMPGMPGGISPYPSGYPPNPSGYPGCPYPPGGPYPATTSSQYPSQPPVTTVGPSRDGTISEDTIRASLISAVSDKLRWRMKEEMDRAQAELNALKRTEEDLKKGHQKL
notes: range 140-270; bait (Gal4 DBD fusion)
B15: Hypothetical protein FLJ10540 1-117 (other, human, UniProt Q53EZ4 1-117, looked up)
chain: MSSRSTKDLIKSKWGSKPSNSKSETTLEKLKGEIAHLKTSVDEITSGKGKLTDKERHRLLEKIRVLEAEKEKNAYQLTEKDKEIQRLRDQLKARYSTTTLLEQLEETTREGERREQV
notes: prey (Gal4 AD-HA fusion)
B16: Survivin (BIRC5) 89-143 (other, human, UniProt O15392 89-142, looked up)
chain: VKKQFEELTLGEFLKLDRERAKNKIAKETNNKKKEFEETAKKVRRAIEQLAAMD
notes: range 89-143; bait (Gal4 DBD fusion); also called API4

Columns and labels:
Assay in all cases: yeast two-hybrid
[1] = biological target: T1, Tumor Suppressor (TSG101) 1-274
[2] = biological target: T7, DNA helicase II, ATP-dependent, 70 kD subunit (KU70) 131-403 (table prints 1131-4404) (human, UniProt P12956 131-403)
T7 construct: prey (Gal4 AD-HA fusion)

[3] = biological target: T2, Tumor Suppressor (TSG101) 50-391
[4] = biological target: T8, v-akt murine thymoma viral oncogene homolog 1 (AKT1) 1-150 (human, UniProt P31749 1-150)
T8 construct: range 1-150; bait (Gal4 DBD fusion)

[5] = biological target: T3, v-akt murine thymoma viral oncogene …
[6] = biological target: B14
[7] = biological target: B13
[8] = biological target: T4, Golgi autoantigen (Golgin-84) 198-501
[9] = biological target: T5, Hypothetical protein FLJ10540 2-132
[10] = biological target: T6, Hypothetical protein FLJ10540 1-140
[11] = biological target: T9, Cytoplasmic dynein light chain 1 (HDLC1) 1-90 (human, UniProt P63167 1-89)
T9 construct: range 1-90; prey (Gal4 AD-HA fusion)
T9 sequence (P63167 whole entry, the tested form may be a part): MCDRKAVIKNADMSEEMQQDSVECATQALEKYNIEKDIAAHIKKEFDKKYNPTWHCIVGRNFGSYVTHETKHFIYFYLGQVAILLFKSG

T8 sequence (P31749 1-150 limits assumed): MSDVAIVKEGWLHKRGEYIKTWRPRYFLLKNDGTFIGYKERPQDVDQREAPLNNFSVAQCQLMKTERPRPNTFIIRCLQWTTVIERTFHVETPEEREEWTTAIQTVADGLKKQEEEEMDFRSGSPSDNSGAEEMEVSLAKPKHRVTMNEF
T7 sequence (P12956 131-403 limits assumed): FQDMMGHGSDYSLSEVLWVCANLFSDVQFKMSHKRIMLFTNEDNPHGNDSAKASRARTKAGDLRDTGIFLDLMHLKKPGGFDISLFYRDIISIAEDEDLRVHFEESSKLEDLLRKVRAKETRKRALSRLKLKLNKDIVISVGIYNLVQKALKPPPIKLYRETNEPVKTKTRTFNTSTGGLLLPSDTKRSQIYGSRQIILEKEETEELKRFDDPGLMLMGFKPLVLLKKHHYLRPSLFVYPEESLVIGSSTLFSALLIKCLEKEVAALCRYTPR

B1
binding result [1]: binds

B2
binding result [2]: binds

B3
binding result [3]: binds

B4
binding result [4]: binds
binding result [5]: binds

B5
binding result [4]: binds

B6
binding result [3]: binds

B7
binding result [6]: binds

B8
binding result [7]: binds

B9
binding result [6]: binds

B10
binding result [6]: binds

B11
binding result [7]: binds

B12
binding result [3]: binds

B13
binding result [8]: binds

B14
binding result [9]: binds
binding result [10]: binds

B15
binding result [3]: binds

B16
binding result [11]: binds

Reference: patent US20050222029A1 (MYRIAD GENETICS, published 2005)
